Assay results reported in paper PMC6954272, “Structure and dynamics of the E. coli chemotaxis core signaling complex by cryo-electron tomography and molecular simulations” (Communications Biology, 2020).
Blank lines part the entries; values can stand above or below the molecule they belong to.

Columns and labels:
[1] = biological target: His6-tagged 4Q variant of the cytoplasmic fragment of the E. coli aspartate receptor Tar (His6-TarCF4Q) (E. coli) (UniProt P07017); assay: cryo-EM structure; cryo-electron tomography and sub-tomogram averaging of arrays reconstituted in vitro; His6-TarCF held on a Ni2+-NTA lipid monolayer; 9:18:18 µM TarCF:CheA:CheW; 75 mM Tris-HCl pH 7.4, 100 mM KCl, 5 mM MgCl2; overnight
[2] = biological target: the molecule itself; assay: as above

stoichiometry N [1]: 6
Molecule: His6-tagged 4Q variant of the cytoplasmic fragment of the E. coli aspartate receptor Tar (His6-TarCF4Q) (from UniProt P07017 357-553) (domain or fragment)

stoichiometry N (CheW per receptor trimer-of-dimers (TOD)) [1]: 2
B1: E. coli adaptor protein CheW (natural protein)
chain: MTGMTNVTKLASEPSGQEFLVFTLGDEEYGIDILKVQEIRGYDQVTRIANTPAFIKGVTNLRGVIVPIVDLRIKFSQVDVDYNDNTVVIVLNLGQRVVGIVVDGVSDVLSLTAEQIRPAPEFAVTLSTEYLTGLGALGDRMLILVNIEKLLNSEEMALLDSAASEVA

stoichiometry N (CheA per receptor trimer-of-dimers (TOD)) [1]: 1
B2: E. coli histidine kinase CheA, domains P3-P4-P5 (P1-P2 deleted) (domain or fragment, UniProt P07363 264-654, looked up)
chain: IRVAVEKVDQLINLVGELVITQSMLAQRSSELDPVNHGDLITSMGQLQRNARDLQESVMSIRMMPMEYVFSRYPRLVRDLAGKLGKQVELTLVGSSTELDKSLIERIIDPLTHLVRNSLDHGIELPEKRLAAGKNSVGNLILSAEHQGGNICIEVTDDGAGLNRERILAKAASQGLTVSENMSDDEVAMLIFAPGFSTAEQVTDVSGRGVGMDVVKRNIQKMGGHVEIQSKQGTGTTIRILLPLTLAILDGMSVRVADEVFILPLNAVMESLQPREADLHPLAGGERVLEVRGEYLPIVELWKVFNVAGAKTEATQGIVVILQSGGRRYALLVDQLIGQHQVVVKNLESNYRKVPGISAATILGDGSVALIVDVSALQAINREQRMANTAA
notes: Histidine kinase CheA, E. coli, domains P3, P4 and P5 (pQM12: based on pKJ9 with del P1-P2); the atomic model covers residues 264-646; The methods also name pKJ9 (full-length CheA); the results say that CheA.P3-P4-P5 stood in the monolayer arrays; also called CheA.P3-P4-P5; CheA.P3.P4.P5; source: E. coli RP3098, plasmid pQM12, purified (Affi-gel Blue, Superdex 200, Mono Q)
stoichiometry N [2]: 2
